The term Kd denotes the equilibrium constant for the complex coming apart. High values mean a looser complex, low ones a tighter complex. The koff is the rate constant with which the complex falls apart. A low value points to slow dissociation. The kon is the rate constant with which the complex forms.

This note sets out measurements from patent US20230416361A1 (MIROBIO, published 2023).

The target of assay [1] is T1, human CD200RLa full length construct on HEK293T cells (human, UniProt Q6Q8B3 24-271).
T1 construct: whole, on cells; also called CD200R1L
T1 sequence (looked up): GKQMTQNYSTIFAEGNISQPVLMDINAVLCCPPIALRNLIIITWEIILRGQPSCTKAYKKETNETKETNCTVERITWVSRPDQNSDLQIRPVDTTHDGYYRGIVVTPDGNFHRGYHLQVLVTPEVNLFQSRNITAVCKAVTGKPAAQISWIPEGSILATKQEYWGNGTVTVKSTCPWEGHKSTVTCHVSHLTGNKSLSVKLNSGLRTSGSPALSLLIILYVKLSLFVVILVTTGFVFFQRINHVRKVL
The assay can be described thus: flow cytometry on transiently transfected HEK293T cells. As for the experimental part:
(§1) The binding of CD200R antibodies to human and cyno CD200R and CD200RLa constructs was assessed by flow cytometry of transiently transfected cells. CD200RLa has a charged transmembrane (TM) that is not expected to express well in the absence of appropriate binding partners. Therefore, in addition to the full length CD200RLa constructs, chimeric constructs were used consisting of the CD200RLa extracellular domain fused to mouse CD80 transmembrane and intracellular tail to enable cell surface expression.
(§2) HEK293T cells were plated out at 1 million cells per well in a 6 well plate the day before transfection. The following day cells were transfected with CD200R constructs using 2.5 μg plasmid DNA (a pcDNA3.4 vector containing the CD200R construct sequence) and 10 μl Lipofectamine 2000 (mixed in 200 μl Optimem for 5 minutes then added dropwise to cells). 48 hours after transfection, cells were collected by vigorous pipetting in cold PBS and 50,000 cells pelleted per well in 96 well U bottom plates.
(§3) Cells were then washed and stained for 30 minutes with a secondary staining mix containing a live/dead marker (Near IR LD, Biolegend cat #423106) and APC anti-hIgG (clone QA19A42, Biolegend cat #366906) or AF647 anti-mIgG1 (clone RMG1-1, cat #406618). As a control, cells were separately stained with the commercial anti-CD200R clone OX108 directly labelled with AF647 (Biolegend cat #329308). Finally, cells were washed and resuspended in FACS buffer for acquisition on a FACS Celesta flow cytometer.
A general note: A flow cytometer gives signals particle by particle.

Assay [2] concerns the target T2, human CD200RLa extracellular domain fused to mouse CD80 transmembrane and intracellular tail, on HEK293T cells (human; mouse, UniProt Q6Q8B3 24-239; Q00609 247-306, limits assumed).
T2 construct: extracellular domain;domain: transmembrane and intracellular tail; also called human CD200RLa chimeric construct
T2 sequence (looked up): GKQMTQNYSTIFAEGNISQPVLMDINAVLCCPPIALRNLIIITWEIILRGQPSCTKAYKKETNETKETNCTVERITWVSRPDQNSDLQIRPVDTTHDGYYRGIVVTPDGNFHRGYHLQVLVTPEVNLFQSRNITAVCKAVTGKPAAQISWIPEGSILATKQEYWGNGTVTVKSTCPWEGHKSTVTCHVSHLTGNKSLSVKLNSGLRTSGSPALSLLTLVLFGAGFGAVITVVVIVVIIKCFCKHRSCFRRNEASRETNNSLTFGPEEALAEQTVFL
Described as above. As for the experimental part: as §1, §2, §3

In assay [3] the target is T3, cyno CD200RLa full length construct on cells (cynomolgus, UniProt A0A2K5W6R0 30-275).
T3 construct: whole, on cells; also called cynomolgus CD200RLa expressed on cells
T3 sequence: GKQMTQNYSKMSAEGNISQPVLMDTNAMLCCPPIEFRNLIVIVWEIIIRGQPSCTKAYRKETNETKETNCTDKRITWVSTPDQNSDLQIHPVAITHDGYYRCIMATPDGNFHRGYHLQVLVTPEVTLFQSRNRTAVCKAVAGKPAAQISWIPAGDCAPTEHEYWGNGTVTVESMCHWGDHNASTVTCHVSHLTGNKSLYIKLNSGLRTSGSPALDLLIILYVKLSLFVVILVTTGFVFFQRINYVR
The assay is described as above. The procedure: as §1, §2, §3

Assay [4] concerns the target T4, monomeric soluble human CD200R extracellular domain (human, UniProt Q8TD46 29-265).
T4 construct: extracellular domain; also called hCD200R; monomeric CD200R protein
T4 sequence (looked up): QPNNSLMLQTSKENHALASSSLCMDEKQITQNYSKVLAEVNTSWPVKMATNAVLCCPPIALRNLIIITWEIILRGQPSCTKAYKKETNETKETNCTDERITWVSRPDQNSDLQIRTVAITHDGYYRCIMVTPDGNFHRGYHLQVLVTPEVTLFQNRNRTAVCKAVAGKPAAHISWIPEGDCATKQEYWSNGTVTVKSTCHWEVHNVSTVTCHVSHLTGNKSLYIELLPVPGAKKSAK
The assay is described as follows: BLI (Octet), antibody on anti-human Fc probes, monomeric CD200R in solution, 25 C, 1:1 global fit.

Assay [5] has as its target T5, extracellular domain of cyno CD200R (SinoBiological 11232-C08H, Met1-Leu267) (cynomolgus, UniProt G7NZT0 25-268).
T5 construct: range 1-267; Bought protein
T5 sequence: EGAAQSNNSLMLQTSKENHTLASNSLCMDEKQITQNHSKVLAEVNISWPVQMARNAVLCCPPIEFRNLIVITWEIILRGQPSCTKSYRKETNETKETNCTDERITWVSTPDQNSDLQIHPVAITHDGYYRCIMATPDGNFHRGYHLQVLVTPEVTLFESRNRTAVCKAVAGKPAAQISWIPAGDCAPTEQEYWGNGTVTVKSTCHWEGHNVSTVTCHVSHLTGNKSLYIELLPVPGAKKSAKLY
The assay can be described thus: SPR (Biacore), antibody captured by anti-human Fc, CD200R extracellular domain injected, single cycle kinetics, 25 C. As for the experimental part:
This example investigates in vitro CD200R binding of anti-CD200R antibodies by surface plasmon resonance. Surface plasmon resonance binding experiments with purified anti-CD200R antibody (expressed on a hIgG1 isotype with a P238D Fc mutation) were performed using the Biacore T200 and 8K+instruments. Anti-human Fc antibody (Life Technologies H10500) was amine-coupled to a C1 sensor chip using standard amine-coupling chemistry. Residual activated carboxyls were blocked with ethanolamine. Antibodies with a human Fc were then captured on these surfaces.
To assess the binding of hu2131_v20_D56S antibody and variants (antibody hu213l_Q1E and antibody hu2131_Q1E_M99G) to the extracellular domains of human CD200R (Met29-Leu243) and cyno CD200R (SinoBiological 11232-C08H, Metl-Leu267), 10-30 RUs of antibody were captured. CD200R proteins were diluted into running buffer (10 mM HEPES, 150 mM NaCl, 3 mM EDTA, 0.01% Polysorbate 20, pH 7.4 with 0.1 mg/mL BSA) (full-length antibody sequences are disclosed in Table 10). Five three-fold serial dilutions were performed for each CD200R, with highest concentration being 100 nM. Samples were injected using a single cycle kinetics scheme (Karlsson Anal Biochem et al 2006). Data were analyzed using Biacore Insight Evaluation Software and fit to a simple kinetic model, from which kon and koff were obtained to calculate KD using the relationship KD=koff/kon. Experiments were run at 25° C.
(Surface plasmon resonance follows binding to a sensor surface in real time, without labels.)

Assay [6] has as its target T3, cyno CD200RLa full length construct on …. The assay can be described thus: flow cytometry. As for the experimental part: as §1, §2
Cells were then washed and stained for 30 minutes with a secondary staining mix containing a live/dead marker (Near IR LD, Biolegend cat #423106) and APC anti-hIgG (clone QA19A42, Biolegend cat #366906) or AF647 anti-mIgG1 (clone RMG1-1, cat #406618). As a control, cells were separately stained with the commercial anti-CD200R clone OX108 directly labelled with AF647 (Biolegend cat #329308). […]

For assay [7], the target named is T4, monomeric soluble human CD200R …. The assay can be described thus: SPR, captured antibody, soluble monomeric receptor injected, single cycle kinetics, 37 C. The procedure: (§4) The binding affinity and kinetics of the CD200R antibodies of the present disclosure to human or cynomolgus CD200R were determined by surface plasmon resonance (SPR) using the Biacore T200 (GE Healthcare). Mouse antibody capture kit (GE Healthcare) was used to coat a Series S CM5 Sensor Chip (GE Healthcare) with polyclonal anti-mouse IgG.
(§5) Anti-CD200R antibody was captured onto the biosensor surface and a negative control antibody (clone Mopc21; Biolegend) captured in the reference channel. Various concentrations of monomeric soluble human CD200R extracellular domain, soluble cynomolgus macaque CD200R1 extracellular domain or soluble cynomolgus macaque CD200RLa (a highly homologous activating receptor) were injected over the immobilized antibodies in the buffer 10 mM Hepes, 150 mM NaCl, 0.005% v/v Surfactant P20, pH 7.4 (HBS-P) at 37° C., in a single cycle kinetics analysis. Association and dissociation rates were fitted using BiaEvaluation Software (GE Healthcare) after reference and blank subtractions, and dissociation constants were calculated (Table 2).

Assay [8] deals with T6, soluble cynomolgus macaque CD200R1 extracellular domain (cynomolgus macaque, UniProt G7NZT0 29-266).
T6 construct: extracellular domain; also called Cynomolgus CD200R
T6 sequence: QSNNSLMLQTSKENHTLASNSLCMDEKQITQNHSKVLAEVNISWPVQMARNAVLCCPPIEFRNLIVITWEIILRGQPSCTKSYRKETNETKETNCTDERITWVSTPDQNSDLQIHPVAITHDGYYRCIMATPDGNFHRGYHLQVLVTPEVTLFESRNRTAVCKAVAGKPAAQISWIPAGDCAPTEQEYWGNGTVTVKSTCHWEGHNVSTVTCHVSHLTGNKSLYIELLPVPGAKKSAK
The description is as above. As for the experimental part: as §4, §5

B1: hu2131_v20_D56S hIgG1k P238D (antibody)
heavy: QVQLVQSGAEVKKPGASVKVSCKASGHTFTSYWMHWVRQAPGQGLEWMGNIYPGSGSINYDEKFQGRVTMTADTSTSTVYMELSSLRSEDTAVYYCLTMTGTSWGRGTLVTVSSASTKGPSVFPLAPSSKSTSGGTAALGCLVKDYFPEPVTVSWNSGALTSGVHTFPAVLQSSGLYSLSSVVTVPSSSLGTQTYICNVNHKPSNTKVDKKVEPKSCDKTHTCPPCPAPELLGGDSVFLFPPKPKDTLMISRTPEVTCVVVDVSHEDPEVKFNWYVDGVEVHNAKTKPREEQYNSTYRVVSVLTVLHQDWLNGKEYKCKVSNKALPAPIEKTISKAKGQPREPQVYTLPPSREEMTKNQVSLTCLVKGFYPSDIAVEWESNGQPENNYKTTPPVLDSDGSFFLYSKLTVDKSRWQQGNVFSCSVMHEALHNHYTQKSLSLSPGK
light: DIQMTQSPSSLSVSVGDRVTITCQASQGTPINLHWFQQKPGKAPKLLISGASNLESGVPSRFSGSGSGTEFTFTISSLQPEDAATYYCLQFTYIPWTFGQGTKLEIKRTVAAPSVFIFPPSDEQLKSGTASVVCLLNNFYPREAKVQWKVDNALQSGNSQESVTEQDSKDSTYSLSSTLTLSKADYEKHKVYACEVTHQGLSSPVTKSFNRGEC
notes: also called VH4/VL5-D56S
Turning to B1, the binding result in assay [1], in assay [2] and in assay [3] was “no binding (tested: 10 ug/ml)” throughout. Besides, the Kd stood at 0.00206 nM in assay [4] and 0.041 nM in assay [5]. In addition, in assay [5], the koff was 1.06e-05 s⁻¹. The same molecule showed a kon in assay [5] of 258000 M⁻¹ s⁻¹.

B2: hu2131_Q1E_M99G hIgG1k P238D (antibody, V domains shown)
VH: EVQLVQSGAEVKKPGASVKVSCKASGHTFTSYWMHWVRQAPGQGLEWMGNIYPGSGSINYDEKFQGRVTMTADTSTSTVYMELSSLRSEDTAVYYCLTGTGTSWGRGTLVTVSS
VL: DIQMTQSPSSLSVSVGDRVTITCQASQGTPINLHWFQQKPGKAPKLLISGASNLESGVPSRFSGSGSGTEFTFTISSLQPEDAATYYCLQFTYIPWTFGQGTKLEIKR
B2: the binding result in assay [1] is “no binding (tested: 10 ug/ml)”. The binding result in assay [2] is listed as “no binding (tested: 10 ug/ml)”. The binding result in assay [3] is “no binding (tested: 10 ug/ml)”. In assay [5], this molecule displayed a dissociation constant (Kd) of 0.0917 nM, a koff of 2.23e-05 s⁻¹ and a kon of 244000 M⁻¹ s⁻¹.

B3: anti-CD200R antibody clone 21.3.1 (mIgG1k isotype) (antibody, V domains shown)
VH: QVQLQQPGSELVRPGASVKLSCKASGHTFTSYWMHWVKQRPGQGLEWIGNIYPGSGSINYDEKFKSKAKLTVDTSSRTAYMQLSSLTSEDSAVYYCLTMTGTSWGQGTLVTVSA
VL: DVQMIQSPSSLSASLGDIVTMTCQASQGTPINLHWFQQKPGKAPKLLISGASNLEDGVPSRFSGSRYGTAFTLTISSLEDEDMATYFCLQFTYIPWTFGGGTKLEIKR
notes: Murine hybridoma antibody, IgG1 kappa
In the case of B3, the binding result in assay [6] is “no binding”; in assay [1] it was “no binding (tested: 10 ug/ml)”; in assay [2], “no binding (tested: 10 ug/ml)”. Further, the Kd in assay [7] stood at 0.3 nM; in assay [8], 0.00825 nM.
